The target in one experiment is T1, human FcRn (human, UniProt P55899 24-290; P61769 21-119, limits assumed).
T1 construct: also called hFcRn
The experiment in a line: SPR Biacore T100, Ab captured on Protein L, FcRn analyte, pH 6.0, 25C. As for the experimental part: Antibodies containing VH3-IgG1m or an above-mentioned variant as the heavy chain and L(WT) (SEQ ID NO:1) as the light chain were produced by the method of Reference Example 2, and the binding activity toward human FcRn was evaluated as follows.
Kinetic analyses of human FcRn and each of the antibodies were carried out using BIACORE T100 (GE Healthcare). […] For the running buffer, 50 mM sodium phosphate, 150 mM NaCl, and 0.05% (w/v) Tween 20 at pH 6.0 was used, and the respective buffer was also used to dilute FcRn. […] All measurements were carried out at 25° C.
On the technique in general: Surface plasmon resonance follows binding to a sensor surface in real time, without labels.

The target in experiment [1] is T2, soluble human FcγRIIIa (His-tagged) (human, UniProt P08637 17-208).
T2 construct: also called hFcγRIIIa; not shown: His tag
The experiment in a line: SPR (Biacore T200), antibody captured on rProtein L on a CM4 chip, soluble His-tagged FcγR injected, HBS-EP+, 20 °C. As for the experimental part: (§1) Soluble FcγRIa and FcγRIIIa in both human and cynomolgus monkey were produced in the form of His-tagged molecules by methods known to those of ordinary skill in the art. […] Next, soluble FcγRIa or FcγRIIIa was injected with a running buffer (used as a reference solution), and was made to interact with the antibodies captured onto the sensor chip. HBS-EP+(GE Healthcare) was used as the running buffer, and HBS-EP+ was also used to dilute the soluble FcγRIa or FcγRIIIa. […] All measurements were carried out at 20° C.

Experiment [2] addresses T3, soluble human FcγRIa (His-tagged) (human, UniProt P12314 16-292, limits assumed).
T3 construct: also called hFcγRIa; not shown: His tag
Described as above. As for the experimental part: as §1

The target in experiment [3] is T4, soluble cynomolgus monkey FcγRIIIa (His-tagged) (cynomolgus monkey, UniProt Q8SPW2 17-208).
T4 construct: also called cynoFcγRIIIa; not shown: His tag
The description is as above. As for the experimental part:
as §1

For experiment [4], the target named is T5, human IL-8 (human, UniProt P10145 23-99, limits assumed).
T5 construct: also called hIL-8; hIL8
The experiment is described as follows: SPR Biacore T200, Protein A/G capture, IL-8 analyte, pH 5.8, 37C.
Procedure: (§2) An appropriate amount of Protein A/G (PIERCE) was immobilized onto Sensor chip CM4 (GE Healthcare) by the amine coupling method and the antibodies of interest was captured. […] To regenerate the sensor chip, 10 mM glycine-HCl at pH 1.5 was used. All measurements were carried out at 37° C. […] The BIACORE T200 Evaluation Software (GE Healthcare) was used to calculate each parameter.

The target in experiment [5] is T5, human IL-8. The experiment in a line: SPR Biacore T200, 37C; ratio between pH 7.4 and pH 5.8.
Procedure: as §2
Experiment [6] deals with T5, human IL-8. The experiment in a line: SPR Biacore T200, Protein A/G capture, IL-8 analyte, pH 7.4, 37C.
Procedure: as §2

T5 sequence (P10145 23-99 limits assumed): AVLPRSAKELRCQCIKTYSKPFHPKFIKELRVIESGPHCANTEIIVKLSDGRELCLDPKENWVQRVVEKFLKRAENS
T1 sequence (P55899 24-290 limits assumed, chain 1 of 2): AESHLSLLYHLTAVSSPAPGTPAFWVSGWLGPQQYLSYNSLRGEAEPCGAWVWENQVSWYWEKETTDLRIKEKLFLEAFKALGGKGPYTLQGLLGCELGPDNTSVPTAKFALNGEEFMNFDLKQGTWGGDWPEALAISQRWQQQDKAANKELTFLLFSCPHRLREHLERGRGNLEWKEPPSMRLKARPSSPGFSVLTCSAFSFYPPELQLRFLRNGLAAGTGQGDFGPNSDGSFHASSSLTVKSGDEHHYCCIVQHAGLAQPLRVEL
T1 sequence (P61769 21-119 limits assumed, chain 2 of 2): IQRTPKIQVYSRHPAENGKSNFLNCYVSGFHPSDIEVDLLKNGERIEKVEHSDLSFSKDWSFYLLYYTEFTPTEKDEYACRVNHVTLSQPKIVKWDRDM
T3 sequence (P12314 16-292 limits assumed): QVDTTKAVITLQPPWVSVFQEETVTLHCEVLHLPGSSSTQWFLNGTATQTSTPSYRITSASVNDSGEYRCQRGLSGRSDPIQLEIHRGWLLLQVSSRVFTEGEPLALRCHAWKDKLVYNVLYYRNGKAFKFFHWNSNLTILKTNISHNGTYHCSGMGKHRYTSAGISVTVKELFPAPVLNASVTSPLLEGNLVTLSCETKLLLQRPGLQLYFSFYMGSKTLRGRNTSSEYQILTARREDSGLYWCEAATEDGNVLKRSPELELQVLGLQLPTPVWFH
T4 sequence (Q8SPW2 17-208 limits assumed): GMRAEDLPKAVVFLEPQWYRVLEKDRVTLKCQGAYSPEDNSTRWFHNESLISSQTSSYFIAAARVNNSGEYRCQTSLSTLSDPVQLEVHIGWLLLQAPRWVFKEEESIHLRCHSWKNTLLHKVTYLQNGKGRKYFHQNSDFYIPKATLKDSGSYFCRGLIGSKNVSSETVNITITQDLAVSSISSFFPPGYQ
T2 sequence (P08637 17-208 limits assumed): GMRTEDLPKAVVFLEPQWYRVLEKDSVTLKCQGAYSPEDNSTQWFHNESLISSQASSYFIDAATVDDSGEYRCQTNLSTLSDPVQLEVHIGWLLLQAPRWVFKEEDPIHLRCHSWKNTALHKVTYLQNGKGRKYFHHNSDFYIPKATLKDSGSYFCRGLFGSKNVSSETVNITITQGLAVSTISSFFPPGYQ

B1: VH3-F1886m / L(WT) (antibody)
heavy: QVQLQESGPGLVKPSETLSLTCAVSGHSISHDHAWSWVRQPPGEGLEWIGFISYSGITNYNPSLQGRVTISRDNSKNTLYLQMNSLRAEDTAVYYCARSLARTTAMDYWGEGTLVTVSSASTKGPSVFPLAPSSKSTSGGTAALGCLVKDYFPEPVTVSWNSGALTSGVHTFPAVLQSSGLYSLSSVVTVPSSSLGTQTYICNVNHKPSNTKVDKKVEPKSCDKTHTCPPCPAPELLGGPSVFLFPPKPKDTLMISRTPEVTCVVVDVSHEDPEVKFNWYVDGVEVHNAKTKPREEQYNSTYRVVSVLTVLHQDWLNGKEYKCKVSNKALPAPIEKTISKAKGQPREPQVYTLPPSREEMTKNQVSLTCLVKGFYPSDIAVEWESNGQPENNYKTTPPVLDSDGSFFLYSKLTVDKSRWQQGNVFSCSVLHEALHAHTTRKELSLSP
light: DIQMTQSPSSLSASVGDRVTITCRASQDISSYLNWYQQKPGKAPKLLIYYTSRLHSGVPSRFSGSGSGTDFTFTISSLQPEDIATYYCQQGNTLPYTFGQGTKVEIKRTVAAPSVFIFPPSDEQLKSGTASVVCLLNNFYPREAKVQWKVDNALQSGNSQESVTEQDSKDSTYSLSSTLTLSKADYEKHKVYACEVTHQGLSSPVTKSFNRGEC
notes: Fc: M428L/N434A/Y436T/Q438R/S440E
On to B1, for which binding in the experiment with human FcRn was characterised by a dissociation constant (Kd) of 108 nM.

B2: VH3-F1927m / L(WT) (antibody)
heavy: QVQLQESGPGLVKPSETLSLTCAVSGHSISHDHAWSWVRQPPGEGLEWIGFISYSGITNYNPSLQGRVTISRDNSKNTLYLQMNSLRAEDTAVYYCARSLARTTAMDYWGEGTLVTVSSASTKGPSVFPLAPSSKSTSGGTAALGCLVKDYFPEPVTVSWNSGALTSGVHTFPAVLQSSGLYSLSSVVTVPSSSLGTQTYICNVNHKPSNTKVDKKVEPKSCDKTHTCPPCPAPELLGGPSVFLFPPKPKDTLMISRTPEVTCVVVDVSHEDPEVKFNWYVDGVEVHNAKTKPREEQYNSTYRVVSVLTVLHQDWLNGKEYKCKVSNKALPAPIEKTISKAKGQPREPQVYTLPPSREEMTKNQVSLTCLVKGFYPSDIAVEWESNGQPENNYKTTPPVLDSDGSFFLYSKLTVDKSRWQQGNVFSCSVLHEALHAHYTRKELSLSP
light: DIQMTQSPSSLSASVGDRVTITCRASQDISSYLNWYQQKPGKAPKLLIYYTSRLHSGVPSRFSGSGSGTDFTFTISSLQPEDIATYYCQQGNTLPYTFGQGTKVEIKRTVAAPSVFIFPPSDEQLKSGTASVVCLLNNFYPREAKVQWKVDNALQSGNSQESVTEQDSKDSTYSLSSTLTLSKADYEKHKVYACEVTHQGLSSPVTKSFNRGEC
notes: Fc: M428L/N434A/Q438R/S440E
For the molecule B2, in the experiment with human FcRn, the Kd worked out at 125 nM.

B3: VH3-YTE / L(WT) (antibody, human IgG1, kappa)
heavy: QVQLQESGPGLVKPSETLSLTCAVSGHSISHDHAWSWVRQPPGEGLEWIGFISYSGITNYNPSLQGRVTISRDNSKNTLYLQMNSLRAEDTAVYYCARSLARTTAMDYWGEGTLVTVSSASTKGPSVFPLAPSSKSTSGGTAALGCLVKDYFPEPVTVSWNSGALTSGVHTFPAVLQSSGLYSLSSVVTVPSSSLGTQTYICNVNHKPSNTKVDKKVEPKSCDKTHTCPPCPAPELLGGPSVFLFPPKPKDTLYITREPEVTCVVVDVSHEDPEVKFNWYVDGVEVHNAKTKPREEQYNSTYRVVSVLTVLHQDWLNGKEYKCKVSNKALPAPIEKTISKAKGQPREPQVYTLPPSREEMTKNQVSLTCLVKGFYPSDIAVEWESNGQPENNYKTTPPVLDSDGSFFLYSKLTVDKSRWQQGNVFSCSVMHEALHNHYTQKSLSLSP
light: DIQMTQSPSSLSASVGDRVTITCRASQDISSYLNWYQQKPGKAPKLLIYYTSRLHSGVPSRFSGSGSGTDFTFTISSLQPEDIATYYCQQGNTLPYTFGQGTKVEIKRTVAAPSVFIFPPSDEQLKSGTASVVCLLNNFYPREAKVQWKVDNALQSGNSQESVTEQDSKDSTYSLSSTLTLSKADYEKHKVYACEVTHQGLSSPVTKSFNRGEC
notes: Fc: M252Y/S254T/T256E
In the case of B3, the affinity with human FcRn, expressed as Kd, was 148 nM.

B4: VH3-F1889m / L(WT) (antibody)
heavy: QVQLQESGPGLVKPSETLSLTCAVSGHSISHDHAWSWVRQPPGEGLEWIGFISYSGITNYNPSLQGRVTISRDNSKNTLYLQMNSLRAEDTAVYYCARSLARTTAMDYWGEGTLVTVSSASTKGPSVFPLAPSSKSTSGGTAALGCLVKDYFPEPVTVSWNSGALTSGVHTFPAVLQSSGLYSLSSVVTVPSSSLGTQTYICNVNHKPSNTKVDKKVEPKSCDKTHTCPPCPAPELLGGPSVFLFPPKPKDTLMISRTPEVTCVVVDVSHEDPEVKFNWYVDGVEVHNAKTKPREEQYNSTYRVVSVLTVLHQDWLNGKEYKCKVSNKALPAPIEKTISKAKGQPREPQVYTLPPSREEMTKNQVSLTCLVKGFYPSDIAVEWESNGQPENNYKTTPPVLDSDGSFFLYSKLTVDKSRWQQGNVFSCSVLHEALHAHVTRKELSLSP
light: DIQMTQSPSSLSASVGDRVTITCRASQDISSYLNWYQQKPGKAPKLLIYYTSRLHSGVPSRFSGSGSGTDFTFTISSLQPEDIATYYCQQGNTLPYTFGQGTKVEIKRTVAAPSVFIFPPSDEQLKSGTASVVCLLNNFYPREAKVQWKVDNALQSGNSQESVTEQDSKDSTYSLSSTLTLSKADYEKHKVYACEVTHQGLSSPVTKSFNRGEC
notes: Fc: M428L/N434A/Y436V/Q438R/S440E
The molecule B4 registered a Kd with human FcRn of 103 nM.

B5: H1009/L395-F1886s (H1009-F1886s / L395-k0MT) (antibody)
heavy: QVQLVESGGGLVQPGGSLRLSCAASGFTFSDYYLSWVRQAPGKGLEWVGLIRNKDNYHTPEYSASVKGRFTISRDDSKNSLYLTMSDLKTEDTAVYYCARENHRYDVELAYWGQGTLVTVSSASTKGPSVFPLAPSSKSTSGGTAALGCLVKDYFPEPVTVSWNSGALTSGVHTFPAVLQSSGLYSLSSVVTVPSSSLGTQTYICNVNHKPSNTKVDKKVEPKSCDKTHTCPPCPAPELRRGPKVFLFPPKPKDTLMISRTPEVTCVVVDVSHEDPEVKFNWYVDGVEVHNAKTKPREEQYNSTYRVVSVLTVLHQDWLNGKEYKCKVSNKALPAPIEKTISKAKGQPREPQVYTLPPSREEMTKNQVSLTCLVKGFYPSDIAVEWESNGQPENNYKTTPPVLDSDGSFFLYSKLTVDKSRWQQGNVFSCSVLHEALHAHTTRKELSLSP
light: DIQMTQSPSSLSASVGDRVTITCRASEIIYSYLAWYQQKPGKAPKLLIYKAKTHADGVPSRFSGSGSGTDFTFTISSLQPEDIATYYCKHHFGFPRTFGQGTKVEIKRTVAAPSVFIFPPSDEQLKSGTASVVCLLNNFYPREAKVQWKVDNALQSGNSQESVTEQDSKDSTYSLSSTLTLSKADYEKHKVYACEVTHQGLSSPVTKSFNRGEC
For B5, the binding result in experiment [1], in experiment [2] and in experiment [3] was “no binding (tested: not given)” in each case.

B6: H1009/L395-F1886m (antibody)
heavy: QVQLVESGGGLVQPGGSLRLSCAASGFTFSDYYLSWVRQAPGKGLEWVGLIRNKDNYHTPEYSASVKGRFTISRDDSKNSLYLTMSDLKTEDTAVYYCARENHRYDVELAYWGQGTLVTVSSASTKGPSVFPLAPSSKSTSGGTAALGCLVKDYFPEPVTVSWNSGALTSGVHTFPAVLQSSGLYSLSSVVTVPSSSLGTQTYICNVNHKPSNTKVDKKVEPKSCDKTHTCPPCPAPELLGGPSVFLFPPKPKDTLMISRTPEVTCVVVDVSHEDPEVKFNWYVDGVEVHNAKTKPREEQYNSTYRVVSVLTVLHQDWLNGKEYKCKVSNKALPAPIEKTISKAKGQPREPQVYTLPPSREEMTKNQVSLTCLVKGFYPSDIAVEWESNGQPENNYKTTPPVLDSDGSFFLYSKLTVDKSRWQQGNVFSCSVLHEALHAHTTRKELSLSP
light: DIQMTQSPSSLSASVGDRVTITCRASEIIYSYLAWYQQKPGKAPKLLIYKAKTHADGVPSRFSGSGSGTDFTFTISSLQPEDIATYYCKHHFGFPRTFGQGTKVEIKRTVAAPSVFIFPPSDEQLKSGTASVVCLLNNFYPREAKVQWKVDNALQSGNSQESVTEQDSKDSTYSLSSTLTLSKADYEKHKVYACEVTHQGLSSPVTKSFNRGEC
As to B6, the binding result in experiment [2] and in experiment [3] was “binds” each time.

B7: H1009/L395-F1974m (H1009-F1974m / L395-k0MT) (antibody)
heavy: QVQLVESGGGLVQPGGSLRLSCAASGFTFSDYYLSWVRQAPGKGLEWVGLIRNKDNYHTPEYSASVKGRFTISRDDSKNSLYLTMSDLKTEDTAVYYCARENHRYDVELAYWGQGTLVTVSSASTKGPSVFPLAPSSKSTSGGTAALGCLVKDYFPEPVTVSWNSGALTSGVHTFPAVLQSSGLYSLSSVVTVPSSSLGTQTYICNVNHKPSNTKVDKKVEPKSCDKTHTCPPCPAPELRRGPSVFLFPPKPKDTLMISRTPEVTCVVVDVSHEDPEVKFNWYVDGVEVHNAKTKPREEQYNSTYRVVSVLTVLHQDWLNGKEYKCKVSNKGLPSSIEKTISKAKGQPREPQVYTLPPSREEMTKNQVSLTCLVKGFYPSDIAVEWESNGQPENNYKTTPPVLDSDGSFFLYSKLTVDKSRWQQGNVFSCSVLHEALHAHTTRKELSLSP
light: DIQMTQSPSSLSASVGDRVTITCRASEIIYSYLAWYQQKPGKAPKLLIYKAKTHADGVPSRFSGSGSGTDFTFTISSLQPEDIATYYCKHHFGFPRTFGQGTKVEIKRTVAAPSVFIFPPSDEQLKSGTASVVCLLNNFYPREAKVQWKVDNALQSGNSQESVTEQDSKDSTYSLSSTLTLSKADYEKHKVYACEVTHQGLSSPVTKSFNRGEC
notes: also called antibody H1009/L395-F1974m
In the case of B7, the binding result in experiment [1], in experiment [2] and in experiment [3] was “no binding (tested: not given)” throughout.

B8: Hr9/L16 (antibody, human IgG1, kappa, name in Kabat numbering, V domains shown)
VH: QVQLVESGGGLVQPGGSLRLSCAASGFTFSDYYLSWVRQAPGKGLEWVGLIRNKANGYTREYSASVKGRFTISRDDSKNSLYLQMSSLKTEDTAVYYCARENYRYDVELAYWGQGTLVTVSS
VL: DIQMTQSPSSLSASVGDRVTITCRASEIIYSYLAWYQQKPGKAPKLLIYNAKTHADGVPSRFSGSGSGTDFTFTISSLQPEDIATYYCQHHFGFPRTFGQGTKVEIKR
notes: WS4L-k0MT with L54H
In the experiment with human IL-8 [4], B8 gave a koff of 0.000197 s⁻¹ and a kon of 39100 M⁻¹ s⁻¹. Also, in the experiment with human IL-8 [5], the “KD Ratio (pH 5.8/pH 7.4)” value amounted to 46.8, the “Koff Ratio (pH 5.8/pH 7.4)” value came to 2.1 and the “kon Ratio (pH 7.4/pH 5.8)” value worked out at 22.8. In the experiment with human IL-8 [6], this molecule displayed a koff of 9.57e-05 s⁻¹ and an on-rate constant (kon) of 890000 M⁻¹ s⁻¹.

As usually defined, the Kd is the equilibrium constant for the complex coming apart. For orientation: koff means a measure of how fast the partners let go of each other. In general, kon refers to the rate constant with which the complex forms.

(Values after patent US20190169286A1 (Chugai, published 2019).)
